Literature values, collected in paper PMC5871712.
Read-outs that look alike come from different tables or passages of the source.

How the values were obtained:
[1] = target: CRFR2 (Rattus norvegicus) (UniProt P47866)
[2] = target: CRFR1 (Rattus norvegicus) (UniProt P35353)
[3] = target: CRFR1 (Rattus norvegicus) (UniProt P35353); remark: listed apart in the source
[4] = target: CRFR2 (Rattus norvegicus) (UniProt P47866); remark: listed apart in the source

CRFR1 (Rattus norvegicus), sequence (P35353 24-415): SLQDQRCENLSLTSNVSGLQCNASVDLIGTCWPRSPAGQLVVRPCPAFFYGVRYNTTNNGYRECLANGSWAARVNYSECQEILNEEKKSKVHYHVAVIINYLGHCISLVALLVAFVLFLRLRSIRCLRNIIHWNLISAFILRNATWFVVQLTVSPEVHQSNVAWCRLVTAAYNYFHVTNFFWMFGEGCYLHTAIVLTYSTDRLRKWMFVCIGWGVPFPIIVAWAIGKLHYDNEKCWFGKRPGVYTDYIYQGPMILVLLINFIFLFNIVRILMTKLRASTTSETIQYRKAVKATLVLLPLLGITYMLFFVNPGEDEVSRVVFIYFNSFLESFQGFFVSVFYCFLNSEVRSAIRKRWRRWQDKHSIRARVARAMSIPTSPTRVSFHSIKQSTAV
Ucn1, sequence (P55090 81-122): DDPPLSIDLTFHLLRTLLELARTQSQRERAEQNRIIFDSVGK
CRFR2 (Rattus norvegicus), sequence (P47866 20-411): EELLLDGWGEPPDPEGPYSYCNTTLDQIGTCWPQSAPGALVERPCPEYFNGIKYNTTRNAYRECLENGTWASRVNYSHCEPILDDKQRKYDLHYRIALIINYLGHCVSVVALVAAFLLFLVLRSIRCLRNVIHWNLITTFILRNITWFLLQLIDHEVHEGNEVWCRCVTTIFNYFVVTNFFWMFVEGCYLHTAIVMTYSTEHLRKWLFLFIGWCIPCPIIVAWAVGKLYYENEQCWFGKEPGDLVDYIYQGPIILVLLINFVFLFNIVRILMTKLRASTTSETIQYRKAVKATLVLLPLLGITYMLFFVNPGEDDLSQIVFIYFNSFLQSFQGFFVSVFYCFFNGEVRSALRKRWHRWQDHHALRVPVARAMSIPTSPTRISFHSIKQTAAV
CRF, sequence (P01143 145-187): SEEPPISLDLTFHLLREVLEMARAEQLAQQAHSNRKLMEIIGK

Row | Ki [1] [nM] | Ki [2] [nM] | Ki [3] [nM] | Ki [4] [nM] | Substance
1 | 42 | 1.6 |  |  | CRF (from UniProt P01143)
2 |  |  | 0.17 | 0.86 | Ucn1 (from UniProt P55090)
